Assay results published in patent publication US11149086B2, “KV1.3 binding immunoglobulins” (Ablynx N.V., priority 2014, dated 2021).

Columns and labels:
cyno Kv1.3 = test: 125I-margatoxin competition on cyno Kv1.3 expressing CHO cells; assay type: binding, cynomolgus; details: 150 pM I125 margatoxin
Method: Periplasmic extracts were screened in a radioligand 125I-margatoxin competition assay to assess the blocking capacity of the expressed Nanobodies. Cynomolgous Kv1.3 was presented on CHO cells overexpressing Kv1.3.
In order to detect binding of margatoxin to cell expressed Kv1.3, a radiolabeled toxin was used (125I-margatoxin; MgTX; Perkin Elmer, NEX083). To setup the assay, first a titration series of the radiolabeled 125I-margatoxin was performed on the CHO-cyKv1.3 and parental CHO K1 cells. To have maximum sensitivity of the screening, the EC30 concentration (150 pM) was chosen for competition during screening and later on, also characterization.
In brief, 35 μl of periplasmic extract was added to 150 pM labeled margatoxin (50 μl) and 40000 CHO-cyKv1.3 cells that were seeded the day before in a poly-D-lysine coated 96-well plate (BD Biocoat, Cat354620) in a total of 200 μl. After two hours incubation at RT, cells were washed two times before read out was performed with 100 μl/well MicroScint-20 (Perkin Elmer) on a TopCount device (Perkin Elmer).
As reference compounds, a dilution series of ShK-1aJ (Smartox, #08SHK001) and unlabeled margatoxin (Alamone labs, Cat RTM-325) were included. […] For each sample the percentage block was determined using the control samples to determine the assay window. […]

CCR7−CD45RA− T cells = assay type: cell-based, human
Description: The purified anti-Kv1.3 Nanobodies were characterized in a T Cell-activation assay. Human T Cells were first collected from Buffy Coat blood (from healthy volunteers, Bloodbank Gent) using RosetteSep (StemCell Technologies, #15061) followed by an enrichment on Ficoll-Paque™ PLUS (GE Healthcare #17-1440-03). CCR7−CD45RA− T cells were isolated through negative selection using biotinylated antibodies against CD45RA (BD Bioscience #624008) and CCR7 (BD Bioscence #624009) in addition to the Dynabeads Biotin Binder (Invitrogen #110.47). The purity of the population was afterwards checked with anti-CD3 (eBioscience #12-0037-73); anti-CD8 (BD Bioscience #345775); anti-CD4 (BD Bioscience #345771); anti-CD45RO (BD Bioscience #555493); anti-CD45RA (BD Bioscience #550855); anti-rat IgG (Jackson ImmunoResearch Laboratories #112-116-143); anti-CD19 (BD Bioscience #555413) and anti-Human CCR7 (R&D Systems #MAB197) labeled antibodies in flow cytometric assay.
Isolated CCR7^−CD45RA^− T Cells were then stimulated on anti-CD3 (eBioscience 16-0037-85; 540 ng/ml) coated 96-well plates at a concentration of 200 000 cells/well in absence or presence of dilution series of anti-Kv1.3 antibodies and ShK positive control (Smartox, #08SHK001). After 72 h, IFN-gamma production was measured with anti-human IFNγ antibody capture in ELISA (BD Bioscence #551221) combined with biotinylated anti-human IFNγ (BD Bioscience, #554550) and streptavidin-HRP (Dakocytomation #P0397) as detection (FIG. 11A-11B).
In addition, also CD25 expression was measured in flow cytometry, using an anti-CD25 antibody (BD Pharmingen, cat 557138) (FIG. 11C-11D). […]

Chain of cyno Kv1.3 (as listed by the source): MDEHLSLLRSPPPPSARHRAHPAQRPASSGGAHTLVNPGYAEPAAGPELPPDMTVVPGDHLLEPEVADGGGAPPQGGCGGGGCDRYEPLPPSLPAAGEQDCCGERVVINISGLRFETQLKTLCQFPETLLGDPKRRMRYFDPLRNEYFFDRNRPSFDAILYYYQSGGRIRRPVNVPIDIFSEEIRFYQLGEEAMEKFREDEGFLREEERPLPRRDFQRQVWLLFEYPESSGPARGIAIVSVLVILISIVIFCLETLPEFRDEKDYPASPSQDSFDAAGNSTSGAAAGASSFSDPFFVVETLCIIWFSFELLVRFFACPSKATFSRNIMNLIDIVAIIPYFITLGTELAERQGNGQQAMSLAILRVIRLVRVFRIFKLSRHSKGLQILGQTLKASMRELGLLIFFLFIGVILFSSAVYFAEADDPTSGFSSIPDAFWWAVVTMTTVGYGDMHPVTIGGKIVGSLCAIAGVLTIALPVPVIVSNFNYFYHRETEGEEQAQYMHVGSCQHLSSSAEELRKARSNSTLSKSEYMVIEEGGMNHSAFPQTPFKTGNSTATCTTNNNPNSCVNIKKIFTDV

B1: A019400003: monovalent anti-Kv1.3 Nanobody, family 1 (protein)
VHH: EVQLVESGGGLVQAGGSLSLSCTASGGTFRNFGMGWFRQAQGKEREFVAAISRTGGHTYYQDSVKGRFTISKDNAKNILSLQMNSLKPEDTAVYYCAARFRFGDGTYYYQRAFYDFWGQGTQVTVSS
modifications: Nanobody sequence
- block of I125 margatoxin binding, in words (cyno Kv1.3): completely block
- inhibition of T-cell stimulation (IFNγ, CD25), in words (CCR7−CD45RA− T cells; anti-CD3 stimulation): did not block
- IC50 (in M) CD25 read out (CCR7−CD45RA− T cells; monovalent Nanobodies, plate bound anti-CD3): no effect
- IC50 (in M) IFNγ read out (CCR7−CD45RA− T cells; monovalent Nanobodies, plate bound anti-CD3, 72 h): no effect
